Each block holds one molecule with its values, some of them ahead of it. Where a SMILES comes first, the peptide text is derived from it. Bridges are numbered along the chain shown (N, C = ends).
What was measured:
[1] = circular dichroism; conditions: water (methods paragraph says 0.1 M phosphate; tables say water); pH ns; 20 °C; 0.5 mM
[2] = Circular dichroism (CD) spectroscopy of linear and stapled peptides in water or 40% TFE/water (Example 3); type: physicochemical; conditions: for [0]208 mean residue ellipticity: λ = 208 nm; for [0]222 mean residue ellipticity: λ = 222 nm
Protocol: CD spectra were obtained on a Jasco J-810 spectropolarimeter and recorded in the range of 180-260 nm. Peptide solutions were prepared with a 0.1M phosphate buffer solution to a concentration of 0.5 mM. The measurements were performed in quartz cuvettes with a path length of 1 mm and a scanning speed of 10-50 nm/min. Five individual data points were averaged by the instrument in order to obtain the reported CD spectrum. The measurements were carried out at 20° C. A blank solution of 0.1M phosphate buffer solution was run before every measurement in order to baseline correct for any UV-interference observed from the buffer.
CD data for the 14- and 15-mer peptides containing HABD2 (VSKLRSQLVKRKQN, SEQ ID NO: 2) and HABD1 (NLKQKIKHVVKLKDE, SEQ ID NO: 4) and cyclized derivatives thereof in water or 40% TFE/water are provided below in Tables 8 (water) and 9 (40% TFE/water). Tables 8 and 9 provide the mean residue ellipicity ([θ] deg cm^2 dmol^−1) at λ=222 and 208 nm for each peptide and ratios of ellipticities at 222/208. Each of the peptides was acetylated at its amino terminus and amidated at its carboxy terminus.
CD data for linear peptides having the sequences […] (SEQ ID NO: 5) and […] (SEQ ID NO: 6) and cyclized derivatives thereof in water or 40% TFE/water are provided below in Tables 12 (water) and 13 (40% TFE/water). Tables 12 and 13 provide the mean residue ellipicity ([0] deg cm^2 dmol^−1) at λ=222 and 208 nm for each peptide and ratios of ellipticities at 222/208. Each of the peptides was acetylated at its amino terminus and amidated at its carboxy terminus.
Circular Dichroism (CD) spectroscopy is a tool that is used to study the secondary structure characteristics of a compound. Peptides and proteins can fold into organized structures, such as alpha helices and beta sheets, which are the result of complex hydrogen bonding and other interactions between amino acid side chains, as well as adopt a random coil formation, which lacks much of the organization of the other two structures. The CD spectrum of an alpha helix is characterized by two local minima at 208 nm and 222 nm. The ratio of the values of the molar ellipticities at these wavelengths ([θ]222/[θ]208) is a strong indication of the relative helicity of a compound; a compound is more helical when the ratio of these two values approaches 1.0. Synthetic constraints introduced to the peptide backbone can force a peptide chain to increase its helical character. These constraints can be introduced by staples, of varying types, which allow cyclization of the peptide backbone to take place.

[3] = Direct HA-binding ELISA of biotinylated peptides on HA coated plates (Example 4); design: key to HA binding: absorbance (color) read at 450 nm
Protocol: Each of these peptides was biotinylated at its amino-terminus, and an AEEA spacer was included to separate the peptide sequence from the biotin molecule.
HA coated plates were purchased (ECHELON). Peptides were dissolved in 2 mM PBS to constant molarity, aliquoted and stored at −20° C. until used in assays. 7 kDa biotin-labeled RHAMM (SEQ ID NO: 1) was synthesized and used as a positive control in these assays. Biotin labeled peptides were added to the HA coated wells (n=3 replicates/peptide) at either 0.8 or 0.08 μM and then incubated with shaking overnight at 4° C. Wells were washed free of excess unbound peptides using 200 μl PBS (4 times). 100 μl of Streptavidin-HRP was then added to each well and the plate was incubated at room temperature for 1 hr. The plate was then washed with 200 μl PBS/well 4 times and TMB Liquid Substrate System for ELISA (Sigma) was added to each well, incubated for 5-10 min at room temperature and color read at 450 nm Plate Reader (BioTek, SYNERGY H4, Hybrid Reader).
Direct HA-binding results for the biotinylated equivalents of compounds 132 and 150-161 are show in FIG. 39, and results for compounds 265-268 and 275-278 are shown in FIG. 40.

[4] = tested on: RHAMM-overexpressing (LR21) cells; experiment: Cell migration assay (Boyden chamber, Chemicon ECM510); type: cell-based; conditions: % inhibition relative to positive control
Protocol: Compounds 132, 133, 150-152, 156-161, 265-269, 275, 277, and 278 were evaluated for their ability to inhibit cell migration. Cell migration assays were performed using Chemicon Assay Kits (ECM510 (Migration); Billerica, Mass., USA) according to the manufacturer's protocol. Briefly, sub-confluent cultures of RHAMM-overexpressing (LR21) cells were serum starved overnight. 7.5×10^4 cells were then plated in the upper chamber of a Boyden chamber. either in the presence or absence of 10 ng/mL of peptide. 30% fetal bovine serum in DMEM was used as the chemo-attractant in the lower chamber. The number of cells that had crossed the membrane after 20 hours was assessed using the CYQUANT GR Dye and lysis buffer solution provided in the kit. Fluorescence was measured with a fluorescent plate reader using a 480/520 nm filter set.
Values are the mean and SDM of n=3 replicates. *p<0.05, **p<0.01. All statistics compare to 30% serum control. In FIGS. 41-43, where bars are labeled with two compound numbers (“133/150” and “135/152”) this means that the data were pooled for the indicated compounds, i.e., for the non-acetylated and acetylated versions of the indicated peptides.

[5] = tested on: RHAMM-overexpressing (LR21) cells; experiment: Cell invasion assay (Boyden chamber with MATRIGEL, Chemicon ECM555); type: cell-based; conditions: % inhibition relative to positive control; 10 ng/mL of peptide
Protocol: Compounds 132, 133, 135, 150-153, 156, 265-269, and 275-278 were evaluated for their ability to inhibit cellular invasion. Invasion assays were performed using Chemicon Assay Kits ECM555 (Invasion); Billerica, Mass., USA) according to the manufacturer's protocol. Invasion assays are performed in an identical manner as the migration assays described above in Example 5, except that cells are required to invade through a layer of extracellular matrix (MATRIGEL) coating the filter that separates the upper and lower Boyden chambers. Briefly, sub-confluent cultures of RHAMM-overexpressing (LR21) cells were serum starved overnight before plating 7.5×10^4 cells in the upper chamber of a Boyden chamber either in the presence or absence of 10 ng/mL of peptide. 30% fetal bovine serum in DMEM was used as the chemo-attractant in the lower chamber. The number of cells that had crossed the membrane after 20 hours was assessed using the CYQUANT® GR Dye and lysis buffer solution provided in the kit. Fluorescence was measured with a fluorescent plate reader using 480/520 nm filter set.
Values the mean and SDM of n=3 replicates. *p<0.05, **p<0.01, ***p<0.001 All statistics compared to 30% serum control. In FIG. 49, where bars are labeled with two compound numbers (“152/135”) this means that the data were pooled for the indicated compound, i.e., for the non-acetylated and acetylated versions of the indicated peptide.

[6] = Function blocking score: total percent inhibition over migration, invasion, inflammation and fibrosis assays divided by number of assays; type: cell-based; conditions: total percent inhibition for all assays tested divided by number of assays
Protocol: As documented in the Examples hereinabove, a variety of cyclized peptides were produced that contained the HA-binding domain 1 (HABD1), HA-binding domain 2 (HABD2), or both HABD1 and HABD2. These peptides were evaluated for helicity, direct HA binding and in a number of cell-based bioassays (effects on migration, invasion, NFkB activation, and TGFβ1 production) that are relevant to inflammation and fibrosis. The relationships amongst helicity, HA-binding, and biofunction were evaluated. Peptides were divided into three groups for this analysis: (1) peptides containing HABD1 (“HABD1”); (2) peptides containing HABD2 (“HABD2”); and peptides containing most or all of HABD1 and all of HABD2 (“HABD1+HABD2”). R^2 values were calculated to quantify the relationships between helicity, HA-binding, and biofunction were evaluated.
The results of this analysis for the HABD1 peptides are shown below in Tables 15 and 16. Table 16 provides a function blocking scores for each of the tested peptides and provides R^2 values showing the relationship between HA binding and helicity (“HA binding vs. CD”), HA binding and function-blocking score (“HA binding vs. FBS”) and helicity vs. function-blocking score (“CD vs. FBS”). The same type of summaries are provided for the HABD2 peptides in Tables 17 and 18 below, and for the HABD1+HABD2 peptides in Tables 19 and 20 below.
Function blocking scores were calculated as the total percent inhibition achieved by the peptide for all assays the peptides were tested in, divided by the number of assays. Assays included migration, invasion, inflammation and fibrosis assays. Not all peptides were tested all of the assays. All peptides were included for deriving R^2 values (Pearson's formula).

[7] = as repeated in tables 16, 18, 20

Molecule: CC[C@H](C)[C@@H]1NC(=O)[C@H](CCCCN)NC(=O)[C@@H](NC(=O)[C@H](CCCCN)NC(=O)[C@H](CC(C)C)NC(=O)[C@H](CC(N)=O)NC(C)=O)CCC(=O)NCCCC[C@@H](C(=O)N[C@H](C(=O)N[C@H](C(=O)N[C@@H](CCCCN)C(=O)N[C@@H](CC(C)C)C(=O)N[C@@H](CCCCN)C(=O)N[C@@H](CC(=O)O)C(=O)N[C@@H](CCC(=O)O)C(N)=O)C(C)C)C(C)C)NC(=O)[C@H](CCCCN)NC1=O (Ac-NLKEKIKKVVKLKDE-NH2; lactam 4-8)
- helicity [1]: -2460 MRE222

Molecule: CC[C@H](C)[C@@H]1NC(=O)[C@@H](NC(=O)[C@H](CCC(N)=O)NC(=O)[C@H](CCCCN)NC(=O)[C@H](CC(C)C)NC(=O)[C@H](CC(N)=O)NC(C)=O)CCC(=O)NCCCC[C@@H](C(=O)N[C@H](C(=O)N[C@@H](CCCCN)C(=O)N[C@@H](CC(C)C)C(=O)N[C@@H](CCCCN)C(=O)N[C@@H](CC(=O)O)C(=O)N[C@@H](CCC(=O)O)C(N)=O)C(C)C)NC(=O)[C@H](Cc2c[nH]cn2)NC(=O)[C@H](CCCCN)NC1=O (Ac-NLKQEIKHKVKLKDE-NH2; lactam 5-9)
- helicity [1]: -2830 MRE222

Molecule: CC(=O)N[C@@H](CC(N)=O)C(=O)N[C@@H](CC(C)C)C(=O)N[C@@H](CCCCN)C(=O)N[C@@H](CCC(N)=O)C(=O)N[C@@H](CCCCN)C(=O)N[C@H]1CCC(=O)NCCCC[C@@H](C(=O)N[C@@H](CCCCN)C(=O)N[C@@H](CC(C)C)C(=O)N[C@@H](CCCCN)C(=O)N[C@@H](CC(=O)O)C(=O)N[C@@H](CCC(=O)O)C(N)=O)NC(=O)[C@H](C(C)C)NC(=O)[C@H](Cc2c[nH]cn2)NC(=O)[C@H](CCCCN)NC1=O (Ac-NLKQKEKHVKKLKDE-NH2; lactam 6-10)
- helicity [1]: -2610 MRE222

Molecule: CC[C@H](C)[C@H](NC(=O)[C@H](CCCCN)NC(=O)[C@H](CCC(N)=O)NC(=O)[C@H](CCCCN)NC(=O)[C@H](CC(C)C)NC(=O)[C@H](CC(N)=O)NC(C)=O)C(=O)N[C@H]1CCC(=O)NCCCC[C@@H](C(=O)N[C@@H](CC(C)C)C(=O)N[C@@H](CCCCN)C(=O)N[C@@H](CC(=O)O)C(=O)N[C@@H](CCC(=O)O)C(N)=O)NC(=O)[C@H](C(C)C)NC(=O)[C@H](C(C)C)NC(=O)[C@H](Cc2c[nH]cn2)NC1=O (Ac-NLKQKIEHVVKLKDE-NH2; lactam 7-11)
- helicity [1]: -3850 MRE222

Molecule: CC[C@H](C)[C@H](NC(=O)[C@H](CCCCN)NC(=O)[C@H](CCC(N)=O)NC(=O)[C@H](CCCCN)NC(=O)[C@H](CC(C)C)NC(=O)[C@H](CC(N)=O)NC(C)=O)C(=O)N[C@@H](CCCCN)C(=O)N[C@H]1CCC(=O)NCCCC[C@@H](C(=O)N[C@@H](CCCCN)C(=O)N[C@@H](CC(=O)O)C(=O)N[C@@H](CCC(=O)O)C(N)=O)NC(=O)[C@H](CCCCN)NC(=O)[C@H](C(C)C)NC(=O)[C@H](C(C)C)NC1=O (Ac-NLKQKIKEVVKKKDE-NH2; lactam 8-12)
- helicity [1]: -1800 MRE222

Molecule: CC(=O)N[C@H](C(=O)N[C@@H](CO)C(=O)N[C@@H](CCCCN)C(=O)N[C@H]1CCC(=O)NCCCC[C@@H](C(=O)N[C@H](C(=O)N[C@@H](CCCCN)C(=O)N[C@@H](CCCNC(=N)N)C(=O)N[C@@H](CCCCN)C(=O)N[C@@H](CCC(N)=O)C(=O)N[C@@H](CC(N)=O)C(N)=O)C(C)C)NC(=O)[C@H](CCC(N)=O)NC(=O)[C@H](CO)NC(=O)[C@H](CCCNC(=N)N)NC1=O)C(C)C (Ac-VSKERSQKVKRKQN-NH2; lactam 4-8)
- helicity [1]: -3350 MRE222

- HA binding [3, 7]: 0.01
- HA direct binding (OD) ([3]; optical density, summary tables 15, 17, 19): 0.01 OD
Molecule: Ac-NLKQKIKHVVKLKDE-NH2 [Compound 156]
- [θ]222/[θ]208 ratio of ellipticities ([2]; [θ]222/[θ]208 ratio in water, summary tables 15, 17, 19): 0.11
- [θ]222/[θ]208 ratio of ellipticities [2, 7]: 0.11
- [0]222/[0]208 ratio of ellipticities ([2]; in 40% TFE/water): 0.74
- [0]222/[0]208 ratio of ellipticities ([2]; in water): 0.11
- alpha-helical character by CD (in words) ([2]; in water): nominal alpha helical character in water
- [0]208 mean residue ellipticity ([2]; in 40% TFE/water): -1.03E+04 deg cm^2 dmol^−1
- [0]208 mean residue ellipticity ([2]; in water): -9.00E+02 deg cm^2 dmol^−1
- [0]222 mean residue ellipticity ([2]; in 40% TFE/water): -8.57E+03 deg cm^2 dmol^−1
- [0]222 mean residue ellipticity ([2]; in water): -1.01E+02 deg cm^2 dmol^−1
- Migration (% inhib.) [4]: 0 % inhib.
- Invasion (% inhib.) [5]: 0 % inhib.
- Function blocking score (FBS) [6]: 0

Reference: patent publication US10562935B2, “Stapled peptides and uses thereof” (London Health Sciences Centre Research Inc., priority 2015, dated 2020)
